In patent publication US20260242478A1 (published 2026):
Where no end group is shown, it is not given here.

Legend:
[1] = molecular target: Anti-CD28 Fab (SEQ ID NOs: 696, 697); experiment: phage binding ELISA; captured Fab pre-incubated with CD28 antigen as competitor, anti-M13 HRP
Target sequence in this assay (VH, as listed by the source, chain 1 of 2): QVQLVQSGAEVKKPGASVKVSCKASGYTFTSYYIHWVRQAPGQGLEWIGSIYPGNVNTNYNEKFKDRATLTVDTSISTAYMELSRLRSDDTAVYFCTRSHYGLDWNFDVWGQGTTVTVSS
Target sequence in this assay (VL, as listed by the source, chain 2 of 2): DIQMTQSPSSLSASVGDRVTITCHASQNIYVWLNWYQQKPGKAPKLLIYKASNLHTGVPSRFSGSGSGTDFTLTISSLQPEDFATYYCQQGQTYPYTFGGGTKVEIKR
Procedure: (§1) After panning, phage infected bacteria were plated out and colonies picked into 96 well blocks. Clonal phage was then amplified and separated from bacterial cells via centrifugation.
(§2) Clonal phage were harvested as crude supematants and screened via standard ELISAs. […] Prior to the addition of clonal phage, wells were incubated with blocking buffer and CD28 antigen or blocking buffer alone. Without washing or aspirating, clonal phage supematants were then added to the wells and incubated for a short time. Wells were then washed followed by detection of bound phage using a horse radish conjugated anti-M13 antibody. Clonal phage of interest were then sent for sequence analysis.

[2] = molecular target: Anti-CD28 Fab (SEQ ID NOs: 696, 697); experiment: phage binding ELISA; biotinylated Fab on neutravidin plate, clonal phage supernatant, anti-M13 HRP;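 further: clones picked after panning, added to wells pre-incubated with CD28 antigen or with blocking buffer only, no wash before phage addition, bound phage read after washing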
Target sequence in this assay (VH, as listed by the source, chain 1 of 2): as the sequence (VH, as listed by the source, chain 1 of 2) above
Target sequence in this assay (VL, as listed by the source, chain 2 of 2): as the sequence (VL, as listed by the source, chain 2 of 2) above
Procedure: as §1, §2

[3] = molecular target: T1, Anti-CD28 Fab (SEQ ID NOs: 696, 697); experiment: phage ELISA; Fab-coated wells first incubated with CD28 antigen (competitor), then clonal phage, anti-M13 HRP
T1 construct: Biotinylated and captured on neutravidin coated plates in the phage ELISA
T1 sequence (VH, as listed by the source, chain 1 of 2): as the sequence (VH, as listed by the source, chain 1 of 2) above
T1 sequence (VL, as listed by the source, chain 2 of 2): as the sequence (VL, as listed by the source, chain 2 of 2) above
Procedure: as §1, §2

[4] = molecular target: T1, Anti-CD28 Fab (SEQ ID NOs: 696, 697); experiment: phage ELISA; biotinylated anti-CD28 Fab on neutravidin plate, clonal phage supernatant, anti-M13 HRP
[5] = molecular target: T2, Anti-CD28 Fab (SEQ ID NOs: 696, 697); experiment: phage binding ELISA on plate-captured anti-CD28 Fab pre-incubated with CD28 antigen as competitor
T2 construct: In the phage ELISA the Fab was biotinylated and captured on neutravidin coated plates
T2 sequence (VH, as listed by the source, chain 1 of 2): as the sequence (VH, as listed by the source, chain 1 of 2) above
T2 sequence (VL, as listed by the source, chain 2 of 2): as the sequence (VL, as listed by the source, chain 2 of 2) above
Procedure: as §1, §2

[6] = molecular target: T2, Anti-CD28 Fab (SEQ ID NOs: 696, 697); experiment: phage binding ELISA; clonal phage on plate-captured biotinylated anti-CD28 Fab, anti-M13 HRP detection
Procedure: as §1, §2

With YCDGHTAQYMWKCL (Tested as clonal phage supernatant) [Phage-1259] the “Anti-CD28 Fab signal in the presence of CD28” value [1] was 0.07 and the “Anti-CD28 Fab (SEQ ID NOs: 696, 697) signal” value [2] was 0.87.

YCDGHTEAYMSKCL (Tested as clonal phage supernatant) [Phage-1254] was tested, and the “Anti-CD28 Fab signal in the presence of CD28” value [1] was 0.06 and the “Anti-CD28 Fab (SEQ ID NOs: 696, 697) signal” value [2] was 0.88.

For YCVGHSPEYIWKCL [Phage-1243], the “Anti-CD28 Fab signal in the presence of CD28 (phage binding ELISA)” value [3] was 0.06 and the “Anti-CD28 Fab signal (phage binding ELISA)” value [4] was 0.92.

B1: Phage-1230 (peptide)
peptide: YCAGHLDVYMSKCL
modifications: cysteine pairing not given here; also: displayed on phage by fusion to pIII, linker and pIII sequence not given here
notes: Tested as clonal phage supernatant
With B1 the “Anti-CD28 Fab signal in the presence of CD28 (phage binding ELISA)” value [5] was 0.09 and the “Anti-CD28 Fab signal (phage binding ELISA)” value [6] was 0.96.

YCDGHSAEYLGKCL [Phage-1242] was tested, and the “Anti-CD28 Fab signal in the presence of CD28 (phage binding ELISA)” value [3] was 0.07 and the “Anti-CD28 Fab signal (phage binding ELISA)” value [4] was 0.92.

B2: Phage-1228 (peptide)
peptide: YCDGHSKEYMSKCL
modifications: cysteine pairing not given here; also: displayed on phage by fusion to pIII, linker and pIII sequence not given here
notes: as for B1
With B2 the “Anti-CD28 Fab signal in the presence of CD28 (phage binding ELISA)” value [5] was 0.07 and the “Anti-CD28 Fab signal (phage binding ELISA)” value [6] was 0.96.

B3: Phage-1232 (peptide)
peptide: YCEGHDIRYMMKCL
modifications: cysteine pairing not given here; also: displayed on phage by fusion to pIII, linker and pIII sequence not given here
notes: as for B1
In the case of B3, the “Anti-CD28 Fab signal in the presence of CD28 (phage binding ELISA)” value [5] is reported as 0.08 and the “Anti-CD28 Fab signal (phage binding ELISA)” value [6] is reported as 0.95.

With YCEGHTQAYLAKCL [Phage-1239] the “Anti-CD28 Fab signal in the presence of CD28 (phage binding ELISA)” value [3] was 0.1 and the “Anti-CD28 Fab signal (phage binding ELISA)” value [4] was 0.93.

In the case of YCDGHSTLYMQKCL (Tested as clonal phage supernatant) [Phage-1253], the “Anti-CD28 Fab signal in the presence of CD28” value [1] is reported as 0.06 and the “Anti-CD28 Fab (SEQ ID NOs: 696, 697) signal” value [2] is reported as 0.88.

With YCDGHFTWYMAKCL (Tested as clonal phage supernatant) [Phage-1256] the “Anti-CD28 Fab signal in the presence of CD28” value [1] was 0.08 and the “Anti-CD28 Fab (SEQ ID NOs: 696, 697) signal” value [2] was 0.87.

With YCAGHSAQYMWKCL [Phage-1240] the “Anti-CD28 Fab signal in the presence of CD28 (phage binding ELISA)” value [3] was 0.07 and the “Anti-CD28 Fab signal (phage binding ELISA)” value [4] was 0.92.

YCAGHAEIYMQKCL [Phage-1236] was tested, and the “Anti-CD28 Fab signal in the presence of CD28 (phage binding ELISA)” value [3] was 0.05 and the “Anti-CD28 Fab signal (phage binding ELISA)” value [4] was 0.93.

In the case of YCDGHSFEYMAKCL [Phage-1241], the “Anti-CD28 Fab signal in the presence of CD28 (phage binding ELISA)” value [3] is reported as 0.06 and the “Anti-CD28 Fab signal (phage binding ELISA)” value [4] is reported as 0.92.

B4: Phage-1229 (peptide)
peptide: YCDGHLPEYMLKCL
modifications: cysteine pairing not given here; also: displayed on phage by fusion to pIII, linker and pIII sequence not given here
notes: as for B1
For B4, the “Anti-CD28 Fab signal in the presence of CD28 (phage binding ELISA)” value [5] was 0.09 and the “Anti-CD28 Fab signal (phage binding ELISA)” value [6] was 0.96.

With YCEGHSSAYMAKCL (Tested as clonal phage supernatant) [Phage-1251] the “Anti-CD28 Fab signal in the presence of CD28” value [1] was 0.07 and the “Anti-CD28 Fab (SEQ ID NOs: 696, 697) signal” value [2] was 0.9.

With YCEGHLSEYIGKCL (Tested as clonal phage supernatant) [Phage-1258] the “Anti-CD28 Fab signal in the presence of CD28” value [1] was 0.06 and the “Anti-CD28 Fab (SEQ ID NOs: 696, 697) signal” value [2] was 0.87.

B5: Phage-1233 (peptide)
peptide: YCDGHEERYMAKCL
modifications: cysteine pairing not given here; also: displayed on phage by fusion to pIII, linker and pIII sequence not given here
notes: as for B1
With B5 the “Anti-CD28 Fab signal in the presence of CD28 (phage binding ELISA)” value [5] was 0.06 and the “Anti-CD28 Fab signal (phage binding ELISA)” value [6] was 0.94.

YCAGHLEMYMSKCL [Phage-1245] was tested, and the “Anti-CD28 Fab signal in the presence of CD28 (phage binding ELISA)” value [3] was 0.07 and the “Anti-CD28 Fab signal (phage binding ELISA)” value [4] was 0.91.

In the case of YCEGHLAAYMYKCL (Tested as clonal phage supernatant) [Phage-1252], the “Anti-CD28 Fab signal in the presence of CD28” value [1] is reported as 0.07 and the “Anti-CD28 Fab (SEQ ID NOs: 696, 697) signal” value [2] is reported as 0.89.

In the case of YCDGHVLMYLAKCL (Tested as clonal phage supernatant) [Phage-1250], the “Anti-CD28 Fab signal in the presence of CD28” value [1] is reported as 0.09 and the “Anti-CD28 Fab (SEQ ID NOs: 696, 697) signal” value [2] is reported as 0.9.

In the case of YCDGHHAEYMWKCL [Phage-1238], the “Anti-CD28 Fab signal in the presence of CD28 (phage binding ELISA)” value [3] is reported as 0.06 and the “Anti-CD28 Fab signal (phage binding ELISA)” value [4] is reported as 0.93.

For YCDGHIAEYRSKCL (Tested as clonal phage supernatant) [Phage-1257], the “Anti-CD28 Fab signal in the presence of CD28” value [1] was 0.07 and the “Anti-CD28 Fab (SEQ ID NOs: 696, 697) signal” value [2] was 0.87.

YCSGHVPEYMEKCL [Phage-1234] was tested, and the “Anti-CD28 Fab signal in the presence of CD28 (phage binding ELISA)” value [3] was 0.06 and the “Anti-CD28 Fab signal (phage binding ELISA)” value [4] was 0.94.

For YCEGHDWMYMEKCL (Tested as clonal phage supernatant) [Phage-1248], the “Anti-CD28 Fab signal in the presence of CD28” value [1] was 0.07 and the “Anti-CD28 Fab (SEQ ID NOs: 696, 697) signal” value [2] was 0.91.

In the case of YCEGHISEYMGKCL (Tested as clonal phage supernatant) [Phage-1255], the “Anti-CD28 Fab signal in the presence of CD28” value [1] is reported as 0.05 and the “Anti-CD28 Fab (SEQ ID NOs: 696, 697) signal” value [2] is reported as 0.88.

In the case of YCDGHIPQYVEKCL [Phage-1235], the “Anti-CD28 Fab signal in the presence of CD28 (phage binding ELISA)” value [3] is reported as 0.08 and the “Anti-CD28 Fab signal (phage binding ELISA)” value [4] is reported as 0.94.

In the case of YCDGHELMYMEKCL [Phage-1244], the “Anti-CD28 Fab signal in the presence of CD28 (phage binding ELISA)” value [3] is reported as 0.06 and the “Anti-CD28 Fab signal (phage binding ELISA)” value [4] is reported as 0.92.

In the case of YCDGHIKEYMSKCL [Phage-1246], the “Anti-CD28 Fab signal in the presence of CD28 (phage binding ELISA)” value [3] is reported as 0.08 and the “Anti-CD28 Fab signal (phage binding ELISA)” value [4] is reported as 0.91.

B6: Phage-1231 (peptide)
peptide: YCAGHTPEYLDKCL
modifications: cysteine pairing not given here; also: displayed on phage by fusion to pIII, linker and pIII sequence not given here
notes: as for B1
For B6, the “Anti-CD28 Fab signal in the presence of CD28 (phage binding ELISA)” value [5] was 0.06 and the “Anti-CD28 Fab signal (phage binding ELISA)” value [6] was 0.95.

YCEGHAHEYMEKCV [Phage-1237] was tested, and the “Anti-CD28 Fab signal in the presence of CD28 (phage binding ELISA)” value [3] was 0.07 and the “Anti-CD28 Fab signal (phage binding ELISA)” value [4] was 0.93.

With YCEGHSQEYKAKCF (Tested as clonal phage supernatant) [Phage-1249] the “Anti-CD28 Fab signal in the presence of CD28” value [1] was 0.07 and the “Anti-CD28 Fab (SEQ ID NOs: 696, 697) signal” value [2] was 0.9.

In the case of YCDGHLLMYMEKCL (Tested as clonal phage supernatant) [Phage-1247], the “Anti-CD28 Fab signal in the presence of CD28” value [1] is reported as 0.06 and the “Anti-CD28 Fab (SEQ ID NOs: 696, 697) signal” value [2] is reported as 0.91.
